Measured values as given in patent CN111748039A.

Target: 重组CEA蛋白 (UniProt P06731)
Sequence of UniProt P06731 (P06731 35-685 limits assumed): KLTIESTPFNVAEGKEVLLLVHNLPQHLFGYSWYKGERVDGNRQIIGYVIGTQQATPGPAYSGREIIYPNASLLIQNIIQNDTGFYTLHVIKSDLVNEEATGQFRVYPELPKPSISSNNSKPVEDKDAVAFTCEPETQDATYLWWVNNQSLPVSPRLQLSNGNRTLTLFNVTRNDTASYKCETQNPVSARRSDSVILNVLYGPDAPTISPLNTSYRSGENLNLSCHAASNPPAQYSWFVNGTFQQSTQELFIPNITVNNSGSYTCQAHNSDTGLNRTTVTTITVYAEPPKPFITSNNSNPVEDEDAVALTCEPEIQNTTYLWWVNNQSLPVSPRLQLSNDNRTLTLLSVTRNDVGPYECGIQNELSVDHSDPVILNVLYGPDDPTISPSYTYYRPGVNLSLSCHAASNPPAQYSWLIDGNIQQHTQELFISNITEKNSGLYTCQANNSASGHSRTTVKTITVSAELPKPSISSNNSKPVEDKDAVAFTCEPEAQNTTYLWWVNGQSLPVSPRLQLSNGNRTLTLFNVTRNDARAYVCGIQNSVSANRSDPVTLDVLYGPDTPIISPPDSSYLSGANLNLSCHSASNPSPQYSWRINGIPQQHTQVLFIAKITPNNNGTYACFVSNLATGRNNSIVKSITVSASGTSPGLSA

- 效价 (titer): 100000
B1: 1#单抗 (antibody, mouse IgG1, kappa, V domains shown)
VH: QIQLVQSGPELKKPGETVKISCKTSGYTFTNYAMNWVKQAPGKGLKWMGWINTNTGEPTYAEEFKGRFAFSLETSATAAYLQINNLKNDDTASYFCARGWVLYAMDYWGQGTSVTVSS
VL: DIQMTQTTSSLSASLGDRVTISCRASQDISNYLNWYQQKSDGTVKLLIYYTSRLHSGVPSRFSGSGSGTDYSLTISNLDPEDVATYFCQQGDMFMFGGGTKLEIRT
